Test results as given in patent publication US20140286975A1.

Experiments:
CD40L = CD40L (UniProt P29965); test: cell-based or functional assay
CD40 = CD40 (UniProt P25942); test: cell-based or functional assay
Chain of UniProt P25942 (P25942 21-277 limits assumed): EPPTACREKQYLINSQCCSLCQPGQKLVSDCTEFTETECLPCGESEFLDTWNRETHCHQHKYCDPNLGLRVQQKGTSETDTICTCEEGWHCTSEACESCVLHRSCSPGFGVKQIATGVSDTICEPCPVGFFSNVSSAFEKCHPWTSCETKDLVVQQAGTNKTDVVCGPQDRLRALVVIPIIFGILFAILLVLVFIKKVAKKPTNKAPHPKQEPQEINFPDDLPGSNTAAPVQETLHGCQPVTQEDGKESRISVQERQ

Chain of UniProt P29965 (P29965 whole entry): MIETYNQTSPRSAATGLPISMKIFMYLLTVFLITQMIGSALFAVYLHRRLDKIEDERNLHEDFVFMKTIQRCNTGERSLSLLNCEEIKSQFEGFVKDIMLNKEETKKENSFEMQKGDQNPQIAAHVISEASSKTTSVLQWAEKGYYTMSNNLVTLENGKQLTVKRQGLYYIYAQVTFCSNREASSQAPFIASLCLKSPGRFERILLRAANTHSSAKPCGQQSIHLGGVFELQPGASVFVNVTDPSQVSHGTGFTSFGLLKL

IFN-γ ELISpots upon recall, T-lymphocytes primed and restimulated by doubly-loaded dendritic cells (CD40L)	IFN-γ ELISpots upon restimulation of T-cells primed by doubly-loaded DCs (CD40)	IFN-γ ELISpots upon restimulation of T-cells primed by lysate-loaded DCs (CD40)	IFN-γ ELISpots upon restimulation of T-cells primed by mRNA-loaded DCs (CD40)	IFN-γ ELISpots upon restimulation, self-antigen controls (fold increase) (CD40)	Substance
68 % decrease	–	–	–	–	anti-CD40L clone 40804 (R&D Systems) (antibody)
–	8 % increase	51 % increase	86 % increase	6	antiCD40 clone 82111 (R&D Systems) (antibody)
